# Measured values reported in IntAct's records for PubMed 29039417.
# B1: Protein PTHB1 (Homo sapiens), Q3SYG4 (parent)
# chain: MSLFKARDWWSTILGDKEEFDQGCLCLANVDNSGNGQDKIIVGSFMGYLRIFSPHPAKTGDGAQAEDLLLEVDLRDPVLQVEVGKFVSGTEMLHLAVLHSRKLCVYSVSGTLGNVEHGNQCQMKLMYEHNLQRTACNMTYGSFGGVKGRDLICIQSMDGMLMVFEQESYAFGRFLPGFLLPGPLAYSSRTDSFLTVSSCQQVESYKYQVLAFATDADKRQETEQQKLGSGKRLVVDWTLNIGEQALDICIVSFNQSASSVFVLGERNFFCLKDNGQIRFMKKLDWSPSCFLPYCSVSEGTINTLIGNHNNMLHIYQDVTLKWATQLPHIPVAVRVGCLHDLKGVIVTLSDDGHLQCSYLGTDPSLFQAPNVQSRELNYDELDVEMKELQKIIKDVNKSQGVWPMTEREDDLNVSVVVSPNFDSVSQATDVEVGTDLVPSVTVKVTLQNRVILQKAKLSVYVQPPLELTCDQFTFEFMTPDLTRTVSFSVYLKRSYTPSELEGNAVVSYSRPTDRNPDGIPRVIQCKFRLPLKLICLPGQPSKTASHKITIDTNKSPVSLLSLFPGFASQSDDDQVNVMGFHFLGGARITVLASKTSQRYRIQSEQFEDLWLITNELILRLQEYFEKQGVKDFACSFSGSIPLQEYFELIDHHFELRINGEKLEELLSERAVQFRAIQRRLLARFKDKTPAPLQHLDTLLDGTYKQVIALADAVEENQGNLFQSFTRLKSATHLVILLIALWQKLSADQVAILEAAFLPLQEDTQELGWEETVDAAISHLLKTCLSKSSKEQALNLNSQLNIPKDTSQLKKHITLLCDRLSKGGRLCLSTDAAAPQTMVMPGGCTTIPESDLEERSVEQDSTELFTNHRHLTAETPRPEVSPLQGVSE
# partner: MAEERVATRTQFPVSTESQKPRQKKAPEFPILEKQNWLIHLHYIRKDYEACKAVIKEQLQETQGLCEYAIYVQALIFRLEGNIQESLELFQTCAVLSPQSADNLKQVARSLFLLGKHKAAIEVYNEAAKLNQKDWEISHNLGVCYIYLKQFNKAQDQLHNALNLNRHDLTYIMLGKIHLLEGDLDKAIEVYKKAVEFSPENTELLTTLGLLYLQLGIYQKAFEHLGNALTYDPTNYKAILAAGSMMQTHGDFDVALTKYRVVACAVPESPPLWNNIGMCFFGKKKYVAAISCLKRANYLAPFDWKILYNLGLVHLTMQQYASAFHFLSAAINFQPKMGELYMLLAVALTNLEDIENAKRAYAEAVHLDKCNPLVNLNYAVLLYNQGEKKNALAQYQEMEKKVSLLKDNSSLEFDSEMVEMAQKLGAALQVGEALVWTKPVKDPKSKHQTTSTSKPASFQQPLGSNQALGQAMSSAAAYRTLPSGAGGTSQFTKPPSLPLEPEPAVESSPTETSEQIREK
# Variants of: B1
# Settings: with bbs4_human BBS4, Q96RK4
row,effect of a mutation on the interaction,Variant
1,with no effect,R528E
2,with no effect,R528K
3,with no effect,R528A
4,with no effect,C535E
5,with no effect,C535K
6,with no effect,C535A
7,with no effect,P537K
8,with no effect,P537E
9,with no effect,P537A
10,disrupting interaction strength,P537L
11,with no effect,K526A
12,with no effect,K526E
13,with no effect,Q524K
14,with no effect,Q524E
15,with no effect,I534A
16,with no effect,I534K
17,with no effect,I534E
18,with no effect,F527K
19,with no effect,F527A
20,with no effect,F527E
21,with no effect,K532A
22,with no effect,K532E
23,with no effect,L533K
24,with no effect,L533A

row,effect of a mutation on the interaction,Variant
1,with no effect,L533E
2,with no effect,G538E
3,with no effect,G538K
4,with no effect,G538A
5,with no effect,L529E
6,disrupting interaction strength,L529P
7,with no effect,L529K
8,with no effect,L529A
9,with no effect,L531A
10,with no effect,L531K
11,with no effect,L531E
12,with no effect,C525A
13,with no effect,C525K
14,with no effect,C525E
15,with no effect,Q539E
16,with no effect,Q539A
17,disrupting interaction strength,P530L
18,with no effect,P530A
19,with no effect,P530E
20,disrupting interaction strength,P530S
21,with no effect,P530K
22,with no effect,L536A
23,with no effect,L536K
24,with no effect,L536E

# The next lines start with the variant.
row,Variant,effect of a mutation on the interaction
1,P511K,with no effect
2,P511A,with no effect
3,P511E,with no effect
4,R510K,with no effect
5,R510A,with no effect
6,R510E,with no effect
7,D513A,with no effect
8,D513E,with no effect
9,D513K,with no effect
10,V522E,with no effect
11,V522K,with no effect
12,V522A,with no effect
13,I519E,with no effect
14,I519A,with no effect
15,I519K,with no effect
16,R514E,with no effect
17,R514A,with no effect
18,R514K,with no effect
19,P520A,with no effect
20,P520K,with no effect
21,P520E,with no effect
22,P516K,with no effect

row,Variant,effect of a mutation on the interaction
1,P516E,with no effect
2,P516A,with no effect
3,Q524A,with no effect
4,T512K,with no effect
5,T512E,with no effect
6,T512A,with no effect
7,G518K,with no effect
8,G518A,with no effect
9,G518E,with no effect
10,I523A,with no effect
11,I523E,with no effect
12,I523K,with no effect
13,R521K,with no effect
14,R521A,with no effect
15,R521E,with no effect
16,N515K,with no effect
17,N515E,with no effect
18,N515A,with no effect
19,N515C,disrupting interaction strength
20,D517E,with no effect
21,D517K,with no effect
22,D517A,with no effect
